Biological target: SARS-CoV-2 spike ectodomain (S-trimer) (SARS-CoV-2) (UniProt P0DTC2)
Test: cryo-EM structure

“SARS-CoV-2 spike ectodomain (S-trimer) (from UniProt P0DTC2 14-1213) (complex)” was tested. Which stoichiometry N did it give?
Its stoichiometry N is 3.
